In US20160264684A1, “GLYCAN-INTERACTING COMPOUNDS AND METHODS OF USE” (SIAMAB THERAPEUTICS, INC., priority 2013, published 2016):

Tests used:
Format in all cases: binding
[1] = Glycan microarray analysis, Tn antigen or other glycans
Experimental: (§1) Optimized glycan arrays comprise 71 chemically synthesized and well-defined glycans, most of which comprise Neu5Ac and Neu5Gc glycan pairs.
(§2) 300 ml of epoxy blocking buffer is prepared by combining 15 ml of 2 M Tris buffer (pH 8) with 0.9 ml of 16.6 M ethanolamine and 284.1 ml of distilled water. The solution is filtered using a 0.2 μM nitrocellulose membrane. The epoxy buffer solution as well as 1 L of distilled water are pre-warmed to 50° C. Glass slides are arranged in a slide holder and quickly submerged in a staining tub with the warmed epoxy blocking buffer. Slides are incubated in the epoxy blocking buffer for 1 hour at 50° C. with periodic shaking to deactivate epoxy binding sites. Next, slides are rinsed and blocked with PBS with 1% OVA at 25° C. for one hour. Serum samples are diluted 1:1000 in PBS with 1% OVA and added to the glycan array for one hour at 25° C. After extensive washing, binding of polyclonal serum antibodies are detected by incubating glycan microarray slides with Cy3-conjugated anti-mouse IgG (Jackson Immunoresearch, West Grove, Pa.) for one hour. […]
(§3) 18D2 and 18C7 clones were expanded and binding properties of these hybridomas were determined by glycan microarray analysis according to Example 4. […] No binding to Tn antigen or other glycans was detected.

[2] = test system: STn on bovine submaxillary mucin (BSM); assay: Anti-STn BSM ELISA
Experimental: Anti-STn serum titer is determined using a murine anti-STn bovine submaxillary mucin (BSM) ELISA together with serum profiles observed by glycan microarray. 96-well plates are coated with 1 μg/well of BSM and incubated overnight at 4° C. O-acetylation of BSM antigen is removed by treating wells with 0.1 M sodium hydroxide. Specific binding to STn is determined by treatment of wells with sodium periodate. Periodate treatment destroys the C6 side chain of sialic acid; therefore antibodies raised against STn should not bind to periodate-treated wells. Wells are blocked with PBS 1% ovalbumin (OVA). Serum samples to be assayed are serially diluted in PBS 1% OVA. A commercially available mouse anti-STn monoclonal antibody, 3F1 (SBH Sciences, Natick, Mass.) is used as a positive control. This antibody is also serially diluted in PBS with 1% OVA. A pool of serum from naïve wild type mice is used for the preparation of negative control samples. Detection of anti-STn antibodies present in serum is determined using an HRP-conjugated polyclonal goat anti-mouse IgG antibody (Jackson Immunoresearch, West Grove, Pa.). The reaction is stopped by addition of sulfuric acid (1.6 M). Optical densities are measured at 490 nm using a Spectramax microplate reader (Molecular Devices, Sunnyvale, Calif.). The serum titer is obtained by comparison of OD values with a cutoff value calculated as two standard deviations above the mean of optical density values of the negative control. […]
Binding affinities of 18D2 and 18C7 to STn were compared to commercially available anti-STn antibodies using the BSM ELISA assay described in Example 2. […] Antibody binding was determined using HRP-conjugated polyclonal goat anti-mouse IgG antibody (Jackson Immunoresearch Laboratories, West Grove, Pa.). […] Optical densities were measured at 490 nm using a Spectramax microplate reader. […] The half maximal effective concentration (EC50) for each antibody was calculated using a non-linear regression analysis carried out on periodate subtracted data.

[3] = Glycan microarray analysis, 9-O-acetylated GcSTn
Experimental: as §1, §2, §3

[4] = Glycan microarray analysis, AcSTn
Experimental: as §1, §2, §3

[5] = Glycan array STn specificity and anti-STn antibody group; set-up: key to Group: Group 1 antibodies according to the invention are antibodies capable of binding AcSTn and GcSTn; Antibodies were assigned to Group 2 based on their ability to bind STn as well as some related structures that include an O-linkage to serine or threonine; Group 3 antibodies are antibodies capable of binding STn, but may also bind a broader set of related structures; Group 4 antibodies are capable of binding to both AcSTn and GcSTn as well as the un-sialylated Tn antigen
Experimental: as §1
300 ml of epoxy blocking buffer is prepared by combining 15 ml of 2 M Tris buffer (pH 8) with 0.9 ml of 16.6 M ethanolamine and 284.1 ml of distilled water. The solution is filtered using a […] nitrocellulose membrane. The epoxy buffer solution as well as 1 L of distilled water are pre-warmed to 50° C. Glass slides are arranged in a slide holder and quickly submerged in a staining tub with the warmed epoxy blocking buffer. Slides are incubated in the epoxy blocking buffer for 1 hour at 50° C. with periodic shaking to deactivate epoxy binding sites. Next, slides are rinsed and blocked with PBS with 1% OVA at 25° C. for one hour. Serum samples are diluted 1:1000 in PBS with 1% OVA and added to the glycan array for one hour at 25° C. After extensive washing, binding of polyclonal serum antibodies are detected by incubating glycan microarray slides with Cy3-conjugated anti-mouse IgG (Jackson Immunoresearch, West Grove, Pa.) for one hour. Slides are then washed extensively, dried and scanned with a Genepix 4000B scanner (Laser at 100%; gain at 350; 10 μm pixels). Raw data from scanned images are extracted using the Genepix software and analysis of raw data is carried out.
Based on characterization data, anti-STn antibodies developed from Group 6 and Group 8 mice were categorized by anti-STn group number. In some cases, antibodies were assigned to Group 1. Group 1 antibodies according to the invention are antibodies capable of binding AcSTn and GcSTn. Such antibodies may have the ability to associate with a wider range of STn structures. The large oval in FIG. 1A indicates the portion of STn recognized by Group 1 antibodies. […] Also listed in the Table is the antibody Isotype for each antibody as determined by the IsoStrip mouse monoclonal antibody isotyping kit (Roche Diagnostics GmbH, Manheim, Germany).

binding to Tn antigen or other glycans [1]: No binding
binding to periodate-treated wells ([2]; BSM ELISA, sodium periodate treated wells): did not bind
EC50 ([2]; non-linear regression on periodate subtracted data, 7-point 1:5 dilution from 100 nM): 6.3 nM
B1: 18D2: anti-STn monoclonal antibody from mouse #4436; IgG2b κ; heavy chain SEQ ID NO 1, light chains SEQ ID NO 2 and 3 (antibody, V domains shown)
VH: QVTLKESGPGILQPSQTLSLTCSFSGFSLSTSNMGIGWIRQPSGKGLEWLAHIWWHDDKYYNPSLKSRLTISKDISNNQVFLKITSVDTADTATYYCAQVPFYYGTSFDVWGTGTTVTVSS
VL 1: DIVMTQSPATLSVTPGDRVSLSCRASQSISDYLHWYQQKSHESPRLLIKYASQSISGIPSRFSGSGSGSDFTLSINSVEPEDVGVYYCQNGHSFPLTFGAGTKLELK
VL 2: QIVLTQSPAIMSASPGETVTMTCSASSSITYMHWYQQKPGTSPKRWIYDTSKLASGVPARFSGSGSGTSYSLTISSMEAEDAATYYCHQRSSYTFGGGTKLEIKR
mean fluorescence intensity, Neu5,9Ac5Gc-α2,6-GalNAc [3]: about 4,000
Glycan Array AcSTn [4]: 50%
mean fluorescence intensity, AcSTn ([4]; glycan microarray): about 16,000
Glycan Array STn Specificity [5]: 100%
Group ([5]; assigned from flow cytometry and glycan array analysis): 1
